Source: patent US20240400675A1 (published 2024)
Changes are numbered by the printed parent chain. In names and notes the source's numbering stands.

Assays:
human CLDN6 [1] = biological target: T1, human CLDN6 (human, UniProt P56747 1-220); assay: flow cytometry on HEK293-Trex cells stably expressing the claudin
T1 construct: also called Claudin 6
T1 sequence: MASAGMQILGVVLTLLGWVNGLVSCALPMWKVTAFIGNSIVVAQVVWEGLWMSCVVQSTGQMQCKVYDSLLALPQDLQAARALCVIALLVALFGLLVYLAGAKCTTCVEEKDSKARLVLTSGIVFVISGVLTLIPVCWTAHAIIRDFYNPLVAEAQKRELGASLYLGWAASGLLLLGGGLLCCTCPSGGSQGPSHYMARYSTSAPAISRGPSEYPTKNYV

human CLDN6 [2] = biological target: T1, human CLDN6; assay: flow cytometry on PA-1 cells engineered to a range of CLDN6 densities
human CLDN8 = biological target: T2, human CLDN8 (human, UniProt P56748 1-225); assay: flow cytometry on transiently transfected 293 cells, 100 ug/ml
T2 construct: whole, on cells
T2 sequence (looked up): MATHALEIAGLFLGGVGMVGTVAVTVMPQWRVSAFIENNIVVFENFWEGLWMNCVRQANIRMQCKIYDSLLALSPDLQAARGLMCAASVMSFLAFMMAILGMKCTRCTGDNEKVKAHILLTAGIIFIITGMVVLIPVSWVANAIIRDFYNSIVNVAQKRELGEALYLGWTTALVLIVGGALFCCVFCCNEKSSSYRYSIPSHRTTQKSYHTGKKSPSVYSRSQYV
Description: (§1) 293 cells were transiently transfected to express CLDN3, CLDN4, CLDN8, or CLDN17. Cells were plated and each test article was added to each cell line at a 100 μg/ml dose. After 1 hour incubation at 4° C., cells were washed and a secondary AF647 antibody was added. Cells were incubated at 4° C. for another hour, followed by additional washing and then analysis by flow cytometry.
as §1, with “with” for “to express”, “cytometry. […] This highlights the potential of CLDN6 binding domains having specificity for binding not only CLDN6 but also other claudin family members.” for “cytometry.”

human CLDN17 = biological target: T3, human CLDN17 (human, UniProt P56750 1-224); assay: as above
T3 construct: whole, on cells
T3 sequence (looked up): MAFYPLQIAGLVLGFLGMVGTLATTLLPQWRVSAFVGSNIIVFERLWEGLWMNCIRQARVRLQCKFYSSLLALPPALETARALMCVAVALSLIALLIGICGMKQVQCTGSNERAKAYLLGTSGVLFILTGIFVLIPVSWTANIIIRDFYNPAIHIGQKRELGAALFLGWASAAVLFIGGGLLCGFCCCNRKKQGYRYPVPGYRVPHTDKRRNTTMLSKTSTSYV
Description: as §1
as §1, with “with” for “to express”, “cytometry. […] This highlights the potential of CLDN6 binding domains having specificity for binding not only CLDN6 but also other claudin family members.” for “cytometry.”

human CLDN6 [3] = biological target: T1, human CLDN6; assay: flow cytometry on transfected cells
human CLDN6 [4] = biological target: T1, human CLDN6; assay: flow cytometry on HEK293E cells expressing CLDN6 or CLDN9; EC50 on CLDN9 cells divided by EC50 on CLDN6 cells
Description: (§2) The following experiments used to screen CLDN6 binding domains were generally performed as follows. HEK293T or HEK293E cells were respectively stably or transiently transfected to express CLDN6, CLND9, or other targets of interest. 48 hours post transfection, cells were harvested and incubated with dilutions of the indicated test articles for 1 hour at 4° C. […] Binding was then assessed via flow cytometry.

human CLDN9 [5] = biological target: T4, human CLDN9 (human, UniProt O95484 1-217); assay: flow cytometry on HEK293E cells expressing CLDN9
T4 construct: also called CLND9
T4 sequence: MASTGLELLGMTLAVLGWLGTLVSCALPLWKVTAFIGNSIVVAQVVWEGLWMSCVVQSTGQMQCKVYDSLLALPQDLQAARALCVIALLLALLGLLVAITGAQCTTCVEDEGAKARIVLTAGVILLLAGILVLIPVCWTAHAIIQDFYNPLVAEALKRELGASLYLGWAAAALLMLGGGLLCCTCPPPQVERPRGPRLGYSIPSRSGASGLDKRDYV
Description: as §2

human CLDN9 [6] = biological target: T4, human CLDN9; assay: flow cytometry on transfected HEK293E cells
Description: as §2

B1: XENP34221, humanized C6-30 H2L2 bivalent mAb (antibody, human IgG1, kappa, V domains shown)
VH: EVQLVQSGAEVKKPGESLRISCKTSGYTFTEYTMHWVRQMPGKSLEWMGGIDPNNGNTHYNQKFQGHVTISVDKSISTAYLQWSSLKASDTAMYYCARIYYFGRLYFDFWGAGTLVTVSS
VL: DIQMTQSPDSLAVSLGERATINCKASEDIYNRLAWYQQKPGQVPKLLISGATSLETGVPSRFSGSGSGKDYTLTISSLQAEDVAVYYCQQYWSSPLTFGGGTKVEIKR
notes: IgG1 with ablation variant; copies: 2 + 2
B1: binds (human CLDN6 [1]).

B2: XENP37541 (Xtend analog to XENP37227) (bispecific antibody)
heavy 1: QVQLVQSGAEVKKPGASVKVSCKTSGYTFTEYTMHWVRQAPGQSLEWMGGIDPNNANTHYNQKFQGRVTITVDKSASTAYMELSSLRSEDTAVYYCARIYYFGRLYFDFWGAGTLVTVSSASTKGPSVFPLAPSSKSTSGGTAALGCLVKDYFPEPVTVSWNSGALTSGVHTFPAVLQSSGLYSLSSVVTVPSSSLGTQTYICNVNHKPSDTKVDKKVEPKSCDKTHTCPPCPAPPVAGPSVFLFPPKPKDTLMISRTPEVTCVVVDVKHEDPEVKFNWYVDGVEVHNAKTKPREEEYNSTYRVVSVLTVLHQDWLNGKEYKCKVSNKALPAPIEKTISKAKGQPREPQVYTLPPSREEMTKNQVSLTCDVSGFYPSDIAVEWESDGQPENNYKTTPPVLDSDGSFFLYSKLTVDKSRWEQGDVFSCSVLHEALHSHYTQKSLSLSPGK
heavy 2: QVQLVQSGAEVKKPGASVKVSCKTSGYTFTEYTMHWVRQAPGQSLEWMGGIDPNNANTHYNQKFQGRVTITVDKSASTAYMELSSLRSEDTAVYYCARIYYFGRLYFDFWGAGTLVTVSSASTKGPSVFPLAPSSKSTSGGTAALGCLVKDYFPEPVTVSWNSGALTSGVHTFPAVLQSSGLYSLSSVVTVPSSSLGTQTYICNVNHKPSNTKVDKKVEPKSCGGGGSGGGGSQAVVTQEPSLTVSPGGTVTLTCGSSTGAVTTSNYANWVQQKPGKSPRGLIGGTNKRAPGVPARFSGSLLGGKAALTISGAQPEDEADYYCALWYSNHWVFGGGTKLTVLGKPGSGKPGSGKPGSGKPGSEVQLVESGGGLVQPGGSLRLSCAASGFTFSTYAMNWVRQAPGKGLEWVGRIRSKANNYATYYADSVKGRFTISRDDSKNTLYLQMNSLRAEDTAVYYCVRHGNFGDSYVSWFAYWGQGTLVTVSSGGGGSGGGGSKTHTCPPCPAPPVAGPSVFLFPPKPKDTLMISRTPEVTCVVVDVKHEDPEVKFNWYVDGVEVHNAKTKPREEQYNSTYRVVSVLTVLHQDWLNGKEYKCKVSNKALPAPIEKTISKAKGQPREPQVYTLPPSREQMTKNQVKLTCLVKGFYPSDIAVEWESNGQPENNYKTTPPVLDSDGSFFLYSKLTVDKSRWQQGNVFSCSVLHEALHSHYTQKSLSLSPGK
light: not shown
notes: 2+1 Fab2-scFv-Fc, C6-30_H1.9_L1.187, CD3 High-Int #1, with Xtend Fc (M428L/N434S); copies: 1 + 1 + 2
B2: binds (human CLDN6 [2]).

B3: XENP37217, CLDN6 x CD3 bispecific with comparator CLDN6 binding domain Comp_CHO02 in the 2+1 Fab2-scFv-Fc format (bispecific antibody)
heavy 1: EVQVEQSGLELVKPGASVKISCKTSGYTFTEYTMHWVKQSHGKSLEWIGGINPNNGNTRYNQKFKDKATLTVDKSSRTAYMELHTLTSEDSAVYYCARCGDYDLFFFFAYWGQGTLVTVSAASTKGPSVFPLAPSSKSTSGGTAALGCLVKDYFPEPVTVSWNSGALTSGVHTFPAVLQSSGLYSLSSVVTVPSSSLGTQTYICNVNHKPSNTKVDKKVEPKSCGGGGSGGGGSQAVVTQEPSLTVSPGGTVTLTCGSSTGAVTTSNYANWVQQKPGKSPRGLIGGTNKRAPGVPARFSGSLLGGKAALTISGAQPEDEADYYCALWYSNHWVFGGGTKLTVLGKPGSGKPGSGKPGSGKPGSEVQLVESGGGLVQPGGSLRLSCAASGFTFSTYAMNWVRQAPGKGLEWVGRIRSKANNYATYYADSVKGRFTISRDDSKNTLYLQMNSLRAEDTAVYYCVRHGNFGDSYVSWFAYWGQGTLVTVSSGGGGSGGGGSKTHTCPPCPAPPVAGPSVFLFPPKPKDTLMISRTPEVTCVVVDVKHEDPEVKFNWYVDGVEVHNAKTKPREEQYNSTYRVVSVLTVLHQDWLNGKEYKCKVSNKALPAPIEKTISKAKGQPREPQVYTLPPSREQMTKNQVKLTCLVKGFYPSDIAVEWESNGQPENNYKTTPPVLDSDGSFFLYSKLTVDKSRWQQGNVFSCSVMHEALHNHYTQKSLSLSPGK
heavy 2: EVQVEQSGLELVKPGASVKISCKTSGYTFTEYTMHWVKQSHGKSLEWIGGINPNNGNTRYNQKFKDKATLTVDKSSRTAYMELHTLTSEDSAVYYCARCGDYDLFFFFAYWGQGTLVTVSAASTKGPSVFPLAPSSKSTSGGTAALGCLVKDYFPEPVTVSWNSGALTSGVHTFPAVLQSSGLYSLSSVVTVPSSSLGTQTYICNVNHKPSDTKVDKKVEPKSCDKTHTCPPCPAPPVAGPSVFLFPPKPKDTLMISRTPEVTCVVVDVKHEDPEVKFNWYVDGVEVHNAKTKPREEEYNSTYRVVSVLTVLHQDWLNGKEYKCKVSNKALPAPIEKTISKAKGQPREPQVYTLPPSREEMTKNQVSLTCDVSGFYPSDIAVEWESDGQPENNYKTTPPVLDSDGSFFLYSKLTVDKSRWEQGDVFSCSVMHEALHNHYTQKSLSLSPGK
light: DIVMTQFQKFMSTSVGDRVSVTCKASQNVGTNVAWYQQKPGQSPEALISSASSRFSGVPDRFTGSGSGTDFTLTITNVQSEDLADYFCQQYNSFPFTFGSGTELEIKRTVAAPSVFIFPPSDEQLKSGTASVVCLLNNFYPREAKVQWKVDNALQSGNSQESVTEQDSKDSTYSLSSTLTLSKADYEKHKVYACEVTHQGLSSPVTKSFNRGEC
notes: also called comparator molecule XENP37217
B3: binds (human CLDN8); binds (human CLDN17).

B4: XENP34219, humanized C6-30 H1L2 bivalent mAb (antibody, human IgG1, kappa, V domains shown)
VH: QVQLVQSGAEVKKPGASVKVSCKTSGYTFTEYTMHWVRQAPGQSLEWMGGIDPNNGNTHYNQKFQGRVTITVDKSASTAYMELSSLRSEDTAVYYCARIYYFGRLYFDFWGAGTLVTVSS
VL: B1 VL
notes: as for B1
B4: binds (human CLDN6 [3]).

B5: XENP34220, humanized C6-30 H2L1 bivalent mAb (antibody, human IgG1, kappa, V domains shown)
VH: B1 VH
VL: DIQMTQSPSSLSASVGDRVTITCQASEDIYNRLAWYQQKPGKVPKLLISGATSLETGVPSRFSGSGSGKDYTFTISSLQPEDIATYYCQQYWSSPLTFGGGTKVEIKR
notes: IgG1 backbone with ablation variant; copies: 2 + 2
B5: binds (human CLDN6 [3]).

B6: XENP34218, humanized C6-30 H1L1 bivalent mAb (antibody, human IgG1, kappa, V domains shown)
VH: B4 VH
VL: B5 VL
notes: IgG1 backbone with E233P/L234V/L235A/G236del/S267K ablation variant; also called XENP34218_HIL1
With B6 the “CLDN9/CLDN6 EC50 ratio” value (human CLDN6 [4]) was 23.

B7: XENP35093 (having C6-30 H1.9_L1) (antibody, human IgG1, kappa, V domains shown)
VH: B4 VH with G56A
VL: B5 VL
notes: Bivalent mAb; also called G55A; copies: 2 + 2
B7: binds (human CLDN6 [3]).

B8: XENP36956 (antibody, V domains shown)
VH: B4 VH with Y100L
VL: B5 VL with S94A
notes: Bivalent mAb, C6-30 combination variant; also called XENP36956 having H1.22_L1.87; XENP36956 having H1.22_L1.187; copies: 2 + 2
B8 was tested, and the EC50 (human CLDN9 [5]) was 29.6 µg/mL and the “CLDN9/CLDN6 EC50 ratio” value (human CLDN6 [4]) was 44.9.

B9: XENP36972 having H1_L1.187 (antibody, human IgG1, kappa, V domains shown)
VH: B4 VH
VL: B5 VL with S94A
notes: Bivalent mAb; also called C6-30 H1_L1.187; copies: 2 + 2
With B9 the “CLDN9/CLDN6 EC50 ratio” value (human CLDN6 [4]) was 52.6.

B10: XENP35101 having H2.8_L1 (antibody, human IgG1, kappa, V domains shown)
VH: B1 VH with G56D
VL: B5 VL
notes: Bivalent mAb; also called C6-30 H2.8_L1; copies: 2 + 2
B10: binds (human CLDN9 [6]).

B11: XENP35102 having H2.9_L1 (antibody, human IgG1, kappa, V domains shown)
VH: B1 VH with G56A
VL: B5 VL
notes: Bivalent mAb; also called C6-30 H2.9_L1; copies: 2 + 2
B11: binds (human CLDN9 [6]).
